Data: paper PMC4847750 (Nature structural & molecular biology, 2015)
Substitutions are numbered along the chain they refer to. Names and notes keep the numbering of the source.

B1: Spy (WT Spy), ATP-independent periplasmic chaperone (natural protein, Escherichia coli, UniProt P77754 24-161, looked up)
chain: ADTTTAAPADAKPMMHHKGKFGPHQDMMFKDLNLTDAQKQQIREIMKGQRDQMKRPPLEERRAMHDIIASDTFDKVKAEAQIAKMEEQRKANMLAHMETQNKIYNILTPEQKKQFNANFEKRLTERPAAKGKMPATAE
B2: Im7-L18A L19A L37A (mimic of unfolded Im7, Im7U) (natural protein, UniProt Q03708 1-87, looked up)
chain: MELKNSISDYTEAEFVQAAKEIEKENVAATDDVLDVALEHFVKITEHPDGTDLIYYPSDNRDDSPEGIVKEIKEWRAANGKPGFKQG
B3: Im7-L53A I54A (mimic of the Im7 folding intermediate, Im7I) (natural protein, UniProt Q03708 1-87, looked up)
chain: B2 chain with A18L, A19L, A37L, L53A, I54A
B4: Immunity protein 7, wild type (Im7-WT) (natural protein, UniProt Q03708 1-87, looked up)
chain: B2 chain with A18L, A19L, A37L

Columns and labels:
[1] = target: B3; experiment: ITC
[2] = target: B4; experiment: ITC
[3] = target: B2; experiment: ITC
[4] = target: B1; experiment: stopped-flow fluorescence
[5] = target: B1; experiment: ITC

Binder: B1
stoichiometry N [1]: 1 Spy dimer per Im7 | stoichiometry N [2]: 1 Spy dimer per Im7 | stoichiometry N [3]: 1 Spy dimer per Im7

Binder: B2
koff [4]: 210 s⁻¹ | kon [4]: 1.3e+07 M⁻¹ s⁻¹ | Kd [5]: 10.4 µM

Binder: B3
Kd [5]: 3.5 µM

Binder: B4
Kd [5]: 20.5 µM
